Results: doi:10.1101/2023.01.23.525191
Values joined by “and” are separate entries in the source; they are usually repeats but may differ in a detail not shown here. Equal entries are not always repeated.

Assays:
[1] = target: recombinant untagged rat RBPMS-A ΔC20 (rat); experiment: SEC
[2] = target: recombinant untagged rat RBPMS-A ΔC20 (rat); experiment: cross-linking
[3] = target: recombinant untagged rat RBPMS-A ΔC20 (rat); experiment: AUC
[4] = target: recombinant untagged rat RBPMS-A ΔC20 (rat); experiment: AUC; remark: listed apart in the source

stoichiometry N [1]: 2 | stoichiometry N [2]: 3 and 4 | stoichiometry N [3]: 2 and 3 | stoichiometry N [4]: 2
Substance: recombinant untagged rat RBPMS-A ΔC20 (domain or fragment)
